The values below come from US20180072811A1 (GENERAL HOSPITAL, published 2018).

For the assay, the target named is T1, chondroitin sulfate proteoglycan 4 (CSPG4), human (human, UniProt Q6UVK1 30-2322).
T1 construct: whole, on cells; Cell surface proteoglycan; also called MCSP; NG2
Briefly: reactivity of single scFv clones with CSPG4+ SK-MEL-28 melanoma cells and CSPG4- LG2 B lymphoid cells.

T1 sequence (Q6UVK1 30-2322): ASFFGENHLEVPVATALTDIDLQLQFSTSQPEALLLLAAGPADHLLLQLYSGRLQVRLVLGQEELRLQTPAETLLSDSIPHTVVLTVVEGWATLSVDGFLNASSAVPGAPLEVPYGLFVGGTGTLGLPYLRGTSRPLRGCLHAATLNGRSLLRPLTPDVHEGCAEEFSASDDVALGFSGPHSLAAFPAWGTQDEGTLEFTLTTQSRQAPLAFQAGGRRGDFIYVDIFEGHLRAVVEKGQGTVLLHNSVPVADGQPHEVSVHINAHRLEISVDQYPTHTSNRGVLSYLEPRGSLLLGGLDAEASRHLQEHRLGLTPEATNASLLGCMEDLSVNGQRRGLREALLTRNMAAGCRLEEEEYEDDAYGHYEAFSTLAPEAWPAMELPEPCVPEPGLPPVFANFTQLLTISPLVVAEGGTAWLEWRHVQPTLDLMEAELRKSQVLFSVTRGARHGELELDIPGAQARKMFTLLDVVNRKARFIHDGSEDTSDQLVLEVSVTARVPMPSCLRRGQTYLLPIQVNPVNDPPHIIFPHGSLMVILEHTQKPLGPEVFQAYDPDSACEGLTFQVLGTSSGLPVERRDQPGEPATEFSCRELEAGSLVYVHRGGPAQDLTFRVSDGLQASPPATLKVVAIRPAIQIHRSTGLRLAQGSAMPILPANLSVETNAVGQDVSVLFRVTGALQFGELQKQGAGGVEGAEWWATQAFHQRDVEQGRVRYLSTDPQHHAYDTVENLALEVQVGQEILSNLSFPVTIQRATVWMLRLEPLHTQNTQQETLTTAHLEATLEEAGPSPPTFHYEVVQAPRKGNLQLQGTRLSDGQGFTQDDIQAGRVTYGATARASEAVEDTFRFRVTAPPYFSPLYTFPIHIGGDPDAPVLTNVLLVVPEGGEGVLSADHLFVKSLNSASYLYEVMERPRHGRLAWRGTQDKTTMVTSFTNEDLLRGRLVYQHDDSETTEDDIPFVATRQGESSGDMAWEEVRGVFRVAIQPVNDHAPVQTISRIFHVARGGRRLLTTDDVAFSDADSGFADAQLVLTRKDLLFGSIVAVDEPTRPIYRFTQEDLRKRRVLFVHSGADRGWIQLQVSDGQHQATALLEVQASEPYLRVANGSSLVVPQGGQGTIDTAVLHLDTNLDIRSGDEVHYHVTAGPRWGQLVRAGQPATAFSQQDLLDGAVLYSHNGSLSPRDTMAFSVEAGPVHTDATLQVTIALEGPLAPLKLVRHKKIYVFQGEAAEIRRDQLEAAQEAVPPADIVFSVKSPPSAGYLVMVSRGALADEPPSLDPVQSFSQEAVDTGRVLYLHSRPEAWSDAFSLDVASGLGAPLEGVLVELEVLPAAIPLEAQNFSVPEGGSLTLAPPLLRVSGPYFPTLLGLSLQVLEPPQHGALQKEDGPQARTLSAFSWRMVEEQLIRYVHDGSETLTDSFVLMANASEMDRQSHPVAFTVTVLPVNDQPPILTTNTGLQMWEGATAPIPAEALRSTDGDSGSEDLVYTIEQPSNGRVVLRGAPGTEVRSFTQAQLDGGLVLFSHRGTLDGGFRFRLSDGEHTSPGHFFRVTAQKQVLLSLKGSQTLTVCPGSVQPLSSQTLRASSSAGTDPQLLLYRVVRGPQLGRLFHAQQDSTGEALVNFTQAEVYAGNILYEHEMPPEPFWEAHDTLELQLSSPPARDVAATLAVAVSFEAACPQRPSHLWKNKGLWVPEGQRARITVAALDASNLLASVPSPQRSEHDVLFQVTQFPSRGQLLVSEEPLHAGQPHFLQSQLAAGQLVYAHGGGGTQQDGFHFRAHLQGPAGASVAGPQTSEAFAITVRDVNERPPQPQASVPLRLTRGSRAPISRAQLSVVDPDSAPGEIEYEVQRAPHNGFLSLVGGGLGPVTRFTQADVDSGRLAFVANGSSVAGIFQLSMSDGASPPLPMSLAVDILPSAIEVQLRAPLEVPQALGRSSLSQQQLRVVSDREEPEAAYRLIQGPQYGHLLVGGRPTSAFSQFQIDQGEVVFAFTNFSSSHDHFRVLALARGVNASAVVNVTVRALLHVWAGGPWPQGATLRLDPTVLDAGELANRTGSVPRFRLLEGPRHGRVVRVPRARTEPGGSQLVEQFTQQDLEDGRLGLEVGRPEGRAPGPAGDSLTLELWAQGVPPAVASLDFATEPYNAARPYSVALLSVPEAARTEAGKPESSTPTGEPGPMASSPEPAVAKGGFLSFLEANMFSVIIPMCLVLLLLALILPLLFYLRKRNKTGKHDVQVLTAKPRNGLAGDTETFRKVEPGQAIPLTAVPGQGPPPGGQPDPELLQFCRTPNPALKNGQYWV

B1: scFv SK5 (scFv)
scFv: MAEVQLVESGGGVVRPGGSLRLSCAASGFTFDDYGMSWVRQAPGKGLEWVSGINWNGGSTGYADSVKGRFTISRDNAKNSLYLQMNSLRAEDTAVYYCARGVLSRYFDYWGQGTLVTVSSGGGGSGGGGSGGGGSEIELTQSPATLSLSPGERATLSCRASQSVSSYLAWYQQKPGQAPRLLIYDASNRATGIPARFSGSGSGTDFTLTISSLEPEDFAVYYCQQRSNWPPAFGGGTKVEIKRAA
notes: Fully human scFv from a semi-synthetic phage display library; Tested as soluble scFv in supernatant with a c-Myc tag, detected through mAb 9E10; also called CSPG4-specific human scFv SK5
For the molecule B1, the binding result was “binds”.
